Assay results taken from patent US20020055130.

How the values were obtained:
[1] = target: T1, purified recombinant MEKK1 NH2-terminal fusion protein (50 kD) (UniProt P53349)
T1 sequence: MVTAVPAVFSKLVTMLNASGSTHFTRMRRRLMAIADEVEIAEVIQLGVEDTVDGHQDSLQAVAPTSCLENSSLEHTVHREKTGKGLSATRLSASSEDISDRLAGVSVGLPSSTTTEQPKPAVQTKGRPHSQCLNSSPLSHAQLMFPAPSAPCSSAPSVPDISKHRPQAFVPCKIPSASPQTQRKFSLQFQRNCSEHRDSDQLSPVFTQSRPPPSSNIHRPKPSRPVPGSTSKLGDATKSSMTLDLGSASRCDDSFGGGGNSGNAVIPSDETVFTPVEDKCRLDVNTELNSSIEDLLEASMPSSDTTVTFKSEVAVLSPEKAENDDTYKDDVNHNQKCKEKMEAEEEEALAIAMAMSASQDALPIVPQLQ

[2] = system: purified recombinant catalytically inactive MEK-1

## 98 kD MEKK protein (98 kD MEKK1) of PC12, Rat1a, NIH3T3 and Swiss3T3 cells
[1]
  phosphorylation of the MEKK1 NH2-terminal fusion protein by immunoprecipitates (in vitro kinase assay): MEKK1 immunoprecipitated from lysates of EGF-stimulated and unstimulated PC12 cells robustly phosphorylated the inert 50 kD MEKK1 NH2-fusion protein
[2]
  phosphorylation of kinase inactive MEK-1 by Mono Q fractions (in vitro kinase assay): Fractions 10-14 of lysate from PC 12 cells treated with EGF phosphorylated MEK-1
